Results: publication PMC10011603, “TRAK adaptors regulate the recruitment and activation of dynein and kinesin in mitochondrial transport” (Nature Communications, 2023)

Key:
[1] = target: T1, full-length TRAK2 (TRAK2^1–914) (human, UniProt O60296 1-914); assay: co-IP; purified proteins, 10 µg each, GFP-Trap beads, MB buffer with 100 mM NaCl and BSA; KIF5B-GFP-SNAPf, Miro1 1-592 and TRAK1 1-532, full-length TRAK1 or full-length TRAK2; with GTPγS or GDP; 0, 100 nM or 2 mM Ca2+; details: both partners purified
T1 construct: TRAK2, human, residues 1-914, full length; source: HEK 293 F GNTI-/- cells, PEI transfection, purified (TRAK purification procedure); not shown: His6-ZZ, N-terminal, cleaved; SNAP-tag or GFP, C-terminal, kept
T1 sequence (looked up): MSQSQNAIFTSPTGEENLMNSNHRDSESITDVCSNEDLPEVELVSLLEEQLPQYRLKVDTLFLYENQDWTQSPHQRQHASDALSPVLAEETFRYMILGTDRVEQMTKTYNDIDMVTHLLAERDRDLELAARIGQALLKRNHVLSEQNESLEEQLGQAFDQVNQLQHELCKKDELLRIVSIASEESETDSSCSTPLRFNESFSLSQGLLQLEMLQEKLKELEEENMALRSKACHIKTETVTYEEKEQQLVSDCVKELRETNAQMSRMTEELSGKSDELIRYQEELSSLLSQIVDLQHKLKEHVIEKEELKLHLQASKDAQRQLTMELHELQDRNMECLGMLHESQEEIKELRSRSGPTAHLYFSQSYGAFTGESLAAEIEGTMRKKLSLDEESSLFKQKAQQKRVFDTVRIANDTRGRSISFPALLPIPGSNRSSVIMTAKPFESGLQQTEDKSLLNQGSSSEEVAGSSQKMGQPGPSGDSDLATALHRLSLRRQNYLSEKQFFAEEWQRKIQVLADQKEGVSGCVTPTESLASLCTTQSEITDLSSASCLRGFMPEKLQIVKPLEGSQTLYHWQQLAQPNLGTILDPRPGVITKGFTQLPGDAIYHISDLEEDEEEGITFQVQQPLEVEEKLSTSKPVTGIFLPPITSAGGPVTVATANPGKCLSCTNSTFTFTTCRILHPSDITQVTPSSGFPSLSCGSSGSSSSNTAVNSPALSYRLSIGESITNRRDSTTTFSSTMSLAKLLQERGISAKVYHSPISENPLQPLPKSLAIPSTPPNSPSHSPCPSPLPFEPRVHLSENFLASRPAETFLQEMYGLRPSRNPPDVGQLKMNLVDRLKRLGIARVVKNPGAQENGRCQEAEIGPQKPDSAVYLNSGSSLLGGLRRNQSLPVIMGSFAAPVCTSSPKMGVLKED

[2] = target: T2, full-length TRAK1 (TRAK1^1–953) (human, UniProt Q9UPV9 1-953); assay: single-molecule TIRF colocalisation on microtubules; three-colour imaging of Alexa488-KIF5B, LD555-TRAK1 1-532 (or full-length TRAK1) and LD655-Miro1 1-592; 10 nM MAP7; 0, 0.1 and 2 mM Ca2+; details: both partners purified
T2 construct: TRAK1, human, residues 1-953, full length; source: HEK 293 F GNTI-/- cells, PEI transfection, purified (TRAK purification procedure); not shown: His6-ZZ, N-terminal, cleaved; SNAP-tag or GFP, C-terminal, kept
T2 sequence (looked up): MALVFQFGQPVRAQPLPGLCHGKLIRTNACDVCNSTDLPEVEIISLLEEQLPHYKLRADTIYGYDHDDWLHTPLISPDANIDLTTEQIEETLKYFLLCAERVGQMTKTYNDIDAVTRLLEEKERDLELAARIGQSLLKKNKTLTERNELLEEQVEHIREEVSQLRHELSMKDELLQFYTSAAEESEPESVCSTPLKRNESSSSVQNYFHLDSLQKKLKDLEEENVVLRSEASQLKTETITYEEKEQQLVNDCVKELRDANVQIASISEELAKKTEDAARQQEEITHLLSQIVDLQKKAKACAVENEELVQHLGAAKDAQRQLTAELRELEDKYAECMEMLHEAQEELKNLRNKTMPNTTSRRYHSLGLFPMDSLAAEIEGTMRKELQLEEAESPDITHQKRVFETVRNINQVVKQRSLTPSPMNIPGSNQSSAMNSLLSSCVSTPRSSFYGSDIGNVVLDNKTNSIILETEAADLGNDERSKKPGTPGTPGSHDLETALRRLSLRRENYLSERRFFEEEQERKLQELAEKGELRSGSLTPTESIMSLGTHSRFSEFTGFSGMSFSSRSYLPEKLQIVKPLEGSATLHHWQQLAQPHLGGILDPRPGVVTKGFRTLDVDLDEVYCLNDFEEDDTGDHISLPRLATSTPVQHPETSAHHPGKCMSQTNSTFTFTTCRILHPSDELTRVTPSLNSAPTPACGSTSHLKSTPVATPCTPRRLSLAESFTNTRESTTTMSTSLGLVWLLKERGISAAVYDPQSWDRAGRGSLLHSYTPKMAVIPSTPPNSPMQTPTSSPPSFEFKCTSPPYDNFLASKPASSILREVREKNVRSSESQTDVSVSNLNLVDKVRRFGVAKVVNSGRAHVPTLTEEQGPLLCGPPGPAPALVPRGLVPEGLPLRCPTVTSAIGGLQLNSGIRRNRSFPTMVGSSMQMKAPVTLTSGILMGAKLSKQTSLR

binding result [1]: binds
binding result [2]: binds
B1: Miro1^1–592 (Miro1^1–592-SNAP-psc-StrepII) (domain or fragment, human, UniProt Q8IXI2 1-592, looked up)
chain: MKKDVRILLVGEPRVGKTSLIMSLVSEEFPEEVPPRAEEITIPADVTPERVPTHIVDYSEAEQSDEQLHQEISQANVICIVYAVNNKHSIDKVTSRWIPLINERTDKDSRLPLILVGNKSDLVEYSSMETILPIMNQYTEIETCVECSAKNLKNISELFYYAQKAVLHPTGPLYCPEEKEMKPACIKALTRIFKISDQDNDGTLNDAELNFFQRICFNTPLAPQALEDVKNVVRKHISDGVADSGLTLKGFLFLHTLFIQRGRHETTWTVLRRFGYDDDLDLTPEYLFPLLKIPPDCTTELNHHAYLFLQSTFDKHDLDRDCALSPDELKDLFKVFPYIPWGPDVNNTVCTNERGWITYQGFLSQWTLTTYLDVQRCLEYLGYLGYSILTEQESQASAVTVTRDKKIDLQKKQTQRNVFRCNVIGVKNCGKSGVLQALLGRNLMRQKKIREDHKSYYAINTVYVYGQEKYLLLHDISESEFLTEAEIICDVVCLVYDVSNPKSFEYCARIFKQHFMDSRIPCLIVAAKSDLHEVKQEYSISPTDFCRKHKMPPPQAFTCNTADAPSKDIFVKLTTMAMYPHVTQADLKSSTF
modifications: LD655 dye on the SNAP tag in motility assays
notes: mitochondrial Rho GTPase 1 (Miro1), human, residues 1-592, lacks the transmembrane domain; A PreScission site (psc) stands between SNAP and StrepII; no cleavage is told; also called Miro1^1–592-StrepII; Miro1^1–592-SNAPf-StrepII; source: purified (Streptactin Sepharose, eluted with desthiobiotin); not shown: SNAP, C-terminal, kept; StrepII, C-terminal, kept
